Source: the supplement of paper PMC10567573

B1: BTBD1 (parent)
chain: YGSIHGPTDYQVNIQIIEYEKKQT

Variants of: B1
Assay: protein stability index of a GFP-peptide fusion (GPS, HEK-293T) (PSI 1-6); higher = more stable
Conditions: c terminus: a fixed tail appended
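Note: lentivirally expressed fusions sorted by FACS into six bins by GFP to DsRed ratio, PSI derived from sequencing read proportions per bin multiplied by bin number.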

Row | Variant | protein stability index
1 | YGSIHGPTDYYVNIQIIEYEKKQT [Q11Y] | 2.24
2 | YGSIHGPTDYIVNIQIIEYEKKQT [Q11I] | 1.68
3 | YGSIHGPTDYCVNIQIIEYEKKQT [Q11C] | 1.54
4 | YGSIHGPTDYAVNIQIIEYEKKQT [Q11A] | 2.26
5 | YGSIHGPTDYVVNIQIIEYEKKQT [Q11V] | 1.42
6 | YGSIHGPTDYWVNIQIIEYEKKQT [Q11W] | 2.67
7 | YGSIHGPTDYMVNIQIIEYEKKQT [Q11M] | 1.93
8 | YGSIHGPTDYLVNIQIIEYEKKQT [Q11L] | 2.83
9 | YGSIHGPTDYHVNIQIIEYEKKQT [Q11H] | 2.48
10 | YGSIHGPTDYEVNIQIIEYEKKQT [Q11E] | 2.66
11 | YGSIHGPTDYTVNIQIIEYEKKQT [Q11T] | 1.55
12 | YGSIHGPTDYSVNIQIIEYEKKQT [Q11S] | 2.34
13 | YGSIHGPTDYPVNIQIIEYEKKQT [Q11P] | 3.5
14 | YGSIHGPTDYNVNIQIIEYEKKQT [Q11N] | 2.39
15 | YGSIHGPTDYKVNIQIIEYEKKQT [Q11K] | 2.15
16 | YGSIHGPTDYGVNIQIIEYEKKQT [Q11G] | 2.57
17 | YGSIHGPTDYRVNIQIIEYEKKQT [Q11R] | 2.32
18 | YGSIHGPTDYDVNIQIIEYEKKQT [Q11D] | 3.52
19 | YGSIHGPTDYQVNAQIIEYEKKQT [I14A] | 3.47
20 | YGSIHGPTDYQVNSQIIEYEKKQT [I14S] | 3.08
21 | YGSIHGPTDYQVNFQIIEYEKKQT [I14F] | 2.92
22 | YGSIHGPTDYQVNDQIIEYEKKQT [I14D] | 3.75
23 | YGSIHGPTDYQVNYQIIEYEKKQT [I14Y] | 3.35
24 | YGSIHGPTDYQVNVQIIEYEKKQT [I14V] | 3.16

Row | Variant | protein stability index
25 | YGSIHGPTDYQVNLQIIEYEKKQT [I14L] | 3.36
26 | YGSIHGPTDYQVNGQIIEYEKKQT [I14G] | 3.32
27 | YGSIHGPTDYQVNRQIIEYEKKQT [I14R] | 3.53
28 | YGSIHGPTDYQVNMQIIEYEKKQT [I14M] | 3.37
29 | YGSIHGPTDYQVNKQIIEYEKKQT [I14K] | 3.75
30 | YGSIHGPTDYQVNEQIIEYEKKQT [I14E] | 3.46
31 | YGSIHGPTDYQVNQQIIEYEKKQT [I14Q] | 3.74
32 | YGSIHGPTDYQVNPQIIEYEKKQT [I14P] | 3.77
33 | YGSIHGPTDYQVNCQIIEYEKKQT [I14C] | 3.3
34 | YGSIHGPTDYQVNNQIIEYEKKQT [I14N] | 3.98
35 | YGSIHGPTDYQVNTQIIEYEKKQT [I14T] | 3.58
36 | YGSIHGPTDYQVNWQIIEYEKKQT [I14W] | 2.76
37 | YGSIHGPTDYQVNHQIIEYEKKQT [I14H] | 3.48
38 | YGSIHGPTDYQVNIQISEYEKKQT [I17S] | 3.31
39 | YGSIHGPTDYQVNIQINEYEKKQT [I17N] | 3.33
40 | YGSIHGPTDYQVNIQILEYEKKQT [I17L] | 2.68
41 | YGSIHGPTDYQVNIQIGEYEKKQT [I17G] | 3.31
42 | YGSIHGPTDYQVNIQIVEYEKKQT [I17V] | 2.68
43 | YGSIHGPTDYQVNIQIFEYEKKQT [I17F] | 2.46
44 | YGSIHGPTDYQVNIQIKEYEKKQT [I17K] | 3.53
45 | YGSIHGPTDYQVNIQIREYEKKQT [I17R] | 2.87
46 | YGSIHGPTDYQVNIQIMEYEKKQT [I17M] | 2.81
47 | YGSIHGPTDYQVNIQIQEYEKKQT [I17Q] | 3.35
48 | YGSIHGPTDYQVNIQICEYEKKQT [I17C] | 2.62

Row | Variant | protein stability index
49 | YGSIHGPTDYQVNIQIAEYEKKQT [I17A] | 3.32
50 | YGSIHGPTDYQVNIQIDEYEKKQT [I17D] | 3.63
51 | YGSIHGPTDYQVNIQITEYEKKQT [I17T] | 3.47
52 | YGSIHGPTDYQVNIQIHEYEKKQT [I17H] | 3.22
53 | YGSIHGPTDYQVNIQIWEYEKKQT [I17W] | 2.71
54 | YGSIHGPTDYQVNIQIEEYEKKQT [I17E] | 3.69
55 | YGSIHGPTDYQVNIQIYEYEKKQT [I17Y] | 2.77
56 | YGSIHGPTDYQVNIQIPEYEKKQT [I17P] | 3.44
57 | YGSIHGPTDYQVNISIIEYEKKQT [Q15S] | 2.57
58 | YGSIHGPTDYQVNIMIIEYEKKQT [Q15M] | 1.96
59 | YGSIHGPTDYQVNILIIEYEKKQT [Q15L] | 2.09
60 | YGSIHGPTDYQVNIGIIEYEKKQT [Q15G] | 2.47
61 | YGSIHGPTDYQVNIYIIEYEKKQT [Q15Y] | 1.37
62 | YGSIHGPTDYQVNIIIIEYEKKQT [Q15I] | 2.74
63 | YGSIHGPTDYQVNIFIIEYEKKQT [Q15F] | 2.4
64 | YGSIHGPTDYQVNIPIIEYEKKQT [Q15P] | 3.08
65 | YGSIHGPTDYQVNIEIIEYEKKQT [Q15E] | 2.66
66 | YGSIHGPTDYQVNIWIIEYEKKQT [Q15W] | 4.17
67 | YGSIHGPTDYQVNINIIEYEKKQT [Q15N] | 2.62
68 | YGSIHGPTDYQVNITIIEYEKKQT [Q15T] | 1.81
69 | YGSIHGPTDYQVNIDIIEYEKKQT [Q15D] | 3.06
70 | YGSIHGPTDYQVNIVIIEYEKKQT [Q15V] | 1.6
71 | YGSIHGPTDYQVNIHIIEYEKKQT [Q15H] | 2.11
72 | YGSIHGPTDYQVNIAIIEYEKKQT [Q15A] | 1.96

Row | Variant | protein stability index
73 | YGSIHGPTDYQVNIRIIEYEKKQT [Q15R] | 2.67
74 | YGSIHGPTDYQVNIKIIEYEKKQT [Q15K] | 2.56
75 | YGSIHGPTDYQVNICIIEYEKKQT [Q15C] | 1.43
76 | YGSIHGPTDYQVNIQVIEYEKKQT [I16V] | 3.15
77 | YGSIHGPTDYQVNIQYIEYEKKQT [I16Y] | 2.71
78 | YGSIHGPTDYQVNIQNIEYEKKQT [I16N] | 3.55
79 | YGSIHGPTDYQVNIQRIEYEKKQT [I16R] | 3.46
80 | YGSIHGPTDYQVNIQTIEYEKKQT [I16T] | 3.58
81 | YGSIHGPTDYQVNIQFIEYEKKQT [I16F] | 2.51
82 | YGSIHGPTDYQVNIQPIEYEKKQT [I16P] | 2.9
83 | YGSIHGPTDYQVNIQMIEYEKKQT [I16M] | 3.32
84 | YGSIHGPTDYQVNIQAIEYEKKQT [I16A] | 3.8
85 | YGSIHGPTDYQVNIQWIEYEKKQT [I16W] | 2.48
86 | YGSIHGPTDYQVNIQCIEYEKKQT [I16C] | 2.96
87 | YGSIHGPTDYQVNIQQIEYEKKQT [I16Q] | 3.9
88 | YGSIHGPTDYQVNIQLIEYEKKQT [I16L] | 2.74
89 | YGSIHGPTDYQVNIQEIEYEKKQT [I16E] | 3.81
90 | YGSIHGPTDYQVNIQKIEYEKKQT [I16K] | 3.97
91 | YGSIHGPTDYQVNIQGIEYEKKQT [I16G] | 3.31
92 | YGSIHGPTDYQVNIQDIEYEKKQT [I16D] | 3.61
93 | YGSIHGPTDYQVNIQHIEYEKKQT [I16H] | 3.91
94 | YGSIHGPTDYQVNIQSIEYEKKQT [I16S] | 3.58
